{"source": "patent US20120316071A1", "about": "(published 2012)", "binders": {"B1": {"name": "Fab VH1-46_IGHD6-6*01_IGHJ1*01 & L6_IGKJ1*01 (Fab, V domains shown)", "VH": "QVQLVQSGAEVKKPGASVKVSCKASGYTFTSYYMHWVRQAPGQGLEWMGIINPSGGSTSYAQKFQGRVTMTRDTSTSTVYMELSSLRSEDTAVYYCAREEYSSSSAEYFQHWGQGTLVTVSS", "VL": "not shown", "notes": "Only variable domains are tied to the molecule; Tested as a Fab made in E. coli: heavy chain from Plasmid A (CH1 constant region, His6 and Flag tags), kappa light chain from Plasmid C (kappa CL); also called parent Hit Fab against DLL4; VH1-46_IGHD6-6*01_IGHJ1*01 & L6_IGKJ1*01 (parental)"}, "B2": {"name": "Fab VH4-34_IGHD7-27*01_IGHJ4*01 & L5_IGKJ1*01 (Fab, V domains shown)", "VH": "QVQLQQWGAGLLKPSETLSLTCAVYGGSFSGYYWSWIRQPPGKGLEWIGEINHSGSTNYNPSLKSRVTISVDTSKNQFSLKLSSVTAADTAVYYCARANWGDYFDYWGQGTLVTVSS", "VL": "DIQMTQSPSSVSASVGDRVTITCRASQGISSWLAWYQQKPGKAPKLLIYAASSLQSGVPSRFSGSGSGTDFTLTISSLQPEDFATYYCQQANSFPPWTFGQGTKVEIKR", "notes": "Germline library Fab expressed in E. coli; VH was cloned into Plasmid A, which adds CH1 with His6 and Flag tags"}, "B3": {"name": "Fab VH1-8_IGHD2-2*01_IGHJ6*01 & L12_IGKJ1*01 (Fab, V domains shown)", "VH": "QVQLVQSGAEVKKPGASVKVSCKASGYTFTSYDINWVRQATGQGLEWMGWMNPNSGNTGYAQKFQGRVTMTRNTSISTAYMELSSLRSEDTAVYYCARGGYCSSTSCYADYYYYYGMDVWGQGTTVTVSS", "VL": "not shown"}}, "key": {"[1]": {"target": "T1, rHuman CD44/Fc Chimera, CF (R&D Systems Cat#3660-CD) (human, UniProt P16070 21-220)", "T1 construct": "Bought reagent", "assay": "MSD multispot ECL, antigen spotted, Fab 9.3 nM; blank spot 287"}, "[2]": {"target": "T2, rHuman IGF-1 sR, (IGF-1 sR), CF (R&D Systems Cat#391-GR) (human, UniProt P08069 31-932)", "T2 construct": "Bought soluble receptor; also called insulin-like growth factor-1 soluble receptor", "assay": "MSD multispot ECL, antigen spotted, Fab 9.3 nM; blank spot 287"}, "[3]": {"target": "T3, Recombinant Human DLL4 (R&D Systems Cat#1506-D4/CF) (human, UniProt Q9NR61 27-524)", "T3 construct": "Bought recombinant protein; also called rHuman DLL4; delta-like protein 4", "assay": "MSD multispot ECL, antigen spotted, Fab 9.3 nM; blank spot 287"}, "[4]": {"target": "T4, rHuman EGF R/Fc Chimera, CF (R&D Systems Cat#344-ER) (human, UniProt P00533 25-645)", "T4 construct": "Bought reagent; also called epidermal growth factor receptor", "assay": "MSD multispot ECL, antigen spotted, Fab 9.3 nM; blank spot 287"}, "[5]": {"target": "T5, rHuman P-Cadherin/Fc Chimera, CF (R&D Systems Cat#861-PC) (human, UniProt P22223 108-654)", "T5 construct": "Bought recombinant protein; Fc part of the bought chimera not given", "assay": "MSD multispot ECL, antigen spotted on plate; Fab 0.1275 uM; blank spot 530"}, "[6]": {"target": "T6, rHuman CD44/Fc Chimera, CF (R&D Systems Cat#3660-CD) (human, UniProt P16070 21-220)", "T6 construct": "Bought recombinant protein; Fc part of the bought chimera not given", "assay": "MSD multispot ECL, antigen spotted on plate; Fab 0.1275 uM; blank spot 530"}, "[7]": {"target": "T7, rHuman IGF-1 sR, CF (R&D Systems Cat#391-GR) (human, UniProt P08069 31-932)", "T7 construct": "Bought recombinant soluble receptor; also called insulin-like growth factor-1 soluble receptor", "assay": "MSD multispot ECL, antigen spotted on plate; Fab 0.1275 uM; blank spot 530"}, "[8]": {"target": "T8, rHuman Erythropoietin R/Fc Chimera, CF (R&D Systems Cat#963-ER) (human, UniProt P19235 25-250)", "T8 construct": "Bought recombinant protein; also called EPO R/Fc; Epo R; Fc part of the bought chimera not given", "T8 sequence (looked up)": "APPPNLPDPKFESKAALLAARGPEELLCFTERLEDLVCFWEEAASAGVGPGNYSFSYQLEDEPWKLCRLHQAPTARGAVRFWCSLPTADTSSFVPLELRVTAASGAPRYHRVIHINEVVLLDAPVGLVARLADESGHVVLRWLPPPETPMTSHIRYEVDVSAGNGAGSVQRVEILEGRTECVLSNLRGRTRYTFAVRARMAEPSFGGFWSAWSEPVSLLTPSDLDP", "assay": "MSD multispot ECL, antigen spotted on plate; Fab 0.1275 uM; blank spot 530"}, "[9]": {"target": "T9, rHuman EGF R/Fc Chimera, CF (R&D Systems Cat#344-ER) (human, UniProt P00533 25-645)", "T9 construct": "Bought recombinant protein; also called epidermal growth factor receptor; Fc part of the bought chimera not given", "assay": "MSD multispot ECL, antigen spotted on plate; Fab 0.1275 uM; blank spot 530"}, "[10]": {"target": "T10, rHuman Notch-1/Fc Chimera, CF (R&D Systems Cat#3647-TK) (human, UniProt P46531 19-526)", "T10 construct": "Bought recombinant protein; Fc part of the bought chimera not given", "assay": "MSD multispot ECL, antigen spotted on plate; Fab 0.1275 uM; blank spot 530"}, "[11]": {"target": "T11, rHuman HGF R/c-MET/Fc Chimera, CF (R&D Systems Cat#358-MT/CF) (human, UniProt P08581 25-932)", "T11 construct": "Bought recombinant protein; also called HGF R/Fc; hepatocyte growth factor receptor; Fc part of the bought chimera not given", "T11 sequence (P08581 25-932, change not shown)": "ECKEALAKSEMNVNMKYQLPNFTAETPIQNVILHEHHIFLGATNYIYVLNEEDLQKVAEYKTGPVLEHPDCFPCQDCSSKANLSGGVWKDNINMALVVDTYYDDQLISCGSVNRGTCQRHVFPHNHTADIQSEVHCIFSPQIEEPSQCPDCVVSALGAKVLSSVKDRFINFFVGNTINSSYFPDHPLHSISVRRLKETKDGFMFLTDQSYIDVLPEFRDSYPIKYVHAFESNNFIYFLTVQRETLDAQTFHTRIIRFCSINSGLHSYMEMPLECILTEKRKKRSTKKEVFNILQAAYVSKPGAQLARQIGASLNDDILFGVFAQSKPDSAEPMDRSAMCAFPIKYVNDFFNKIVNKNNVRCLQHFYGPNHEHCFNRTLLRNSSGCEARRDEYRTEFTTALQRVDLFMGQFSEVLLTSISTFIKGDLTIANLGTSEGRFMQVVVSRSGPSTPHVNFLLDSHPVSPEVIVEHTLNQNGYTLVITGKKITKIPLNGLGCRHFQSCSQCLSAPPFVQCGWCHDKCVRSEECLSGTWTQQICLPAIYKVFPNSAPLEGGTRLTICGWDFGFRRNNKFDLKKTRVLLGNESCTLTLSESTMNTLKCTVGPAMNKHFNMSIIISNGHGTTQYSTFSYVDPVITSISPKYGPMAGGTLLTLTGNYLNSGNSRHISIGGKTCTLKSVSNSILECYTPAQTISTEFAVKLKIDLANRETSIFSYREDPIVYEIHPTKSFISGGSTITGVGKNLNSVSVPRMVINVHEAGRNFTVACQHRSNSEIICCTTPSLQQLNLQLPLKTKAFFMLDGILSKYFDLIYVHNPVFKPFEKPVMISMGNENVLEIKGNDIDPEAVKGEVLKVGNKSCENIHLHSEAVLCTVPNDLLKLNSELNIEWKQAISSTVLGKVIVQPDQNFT", "assay": "MSD multispot ECL, antigen spotted on plate; Fab 0.1275 uM; blank spot 530"}, "[12]": {"target": "T12, rHuman ErbB2/Fc Chimera, CF (R&D Systems Cat#1129-ER) (human, UniProt P04626 23-652)", "T12 construct": "Bought recombinant protein; also called human epidermal growth factor 2 receptor; Fc part of the bought chimera not given", "assay": "MSD multispot ECL, antigen spotted on plate; Fab 0.1275 uM; blank spot 530"}, "[13]": {"target": "T13, Recombinant Human DLL4 (R&D Systems Cat#1506-D4/CF) (human, UniProt Q9NR61 27-524)", "T13 construct": "Bought recombinant protein; also called delta-like protein 4; rHuman DLL4", "assay": "MSD multispot ECL, antigen spotted on plate; Fab 0.1275 uM; blank spot 530"}, "[14]": {"target": "T14, rHuman Erythropoietin R/Fc Chimera, CF (R&D Systems Cat#963-ER) (human, UniProt P19235 25-250)", "T14 construct": "Bought reagent; also called EPO R/Fc; EPO R; Fc part of the bought chimera not given", "T14 sequence (looked up)": "T8 sequence (looked up)", "assay": "MSD Multispot ECL, antigen spotted on plate, Fab 32.5 nM; blank spot 473"}, "[15]": {"target": "T15, rHuman Notch-1/Fc Chimera, CF (R&D Systems Cat#3647-TK) (human, UniProt P46531 19-526)", "T15 construct": "Bought reagent; Fc part of the bought chimera not given", "assay": "MSD Multispot ECL, antigen spotted on plate, Fab 32.5 nM; blank spot 473"}, "[16]": {"target": "T16, Recombinant Human DLL4 (R&D Systems Cat#1506-D4/CF) (human, UniProt Q9NR61 27-529)", "T16 construct": "Bought recombinant protein; also called rHuman DLL4; delta-like protein 4", "assay": "MSD Multispot ECL, antigen spotted on plate, Fab 32.5 nM; blank spot 473"}, "[17]": {"target": "T17, rHuman EGF R/Fc Chimera, CF (R&D Systems Cat#344-ER) (human, UniProt P00533 25-645)", "T17 construct": "Bought reagent; also called epidermal growth factor receptor; Fc part of the bought chimera not given", "assay": "MSD Multispot ECL, antigen spotted on plate, Fab 32.5 nM; blank spot 473"}, "[18]": {"target": "T18, rHuman CD44/Fc Chimera, CF (R&D Systems Cat#3660-CD) (human, UniProt P16070 21-220)", "T18 construct": "Bought reagent; Fc part of the bought chimera not given", "assay": "MSD Multispot ECL, antigen spotted on plate, Fab 32.5 nM; blank spot 473"}, "[19]": {"target": "T19, rHuman ErbB2/Fc Chimera, CF (R&D Systems Cat#1129-ER) (human, UniProt P04626 23-652)", "T19 construct": "Bought reagent; also called human epidermal growth factor 2 receptor; Fc part of the bought chimera not given", "assay": "MSD Multispot ECL, antigen spotted on plate, Fab 32.5 nM; blank spot 473"}}}
{"binder": "B1", "values": [{"measurement": "ECL signal", "setting": "[1]", "value": 396, "unit": "ECL signal"}, {"measurement": "ECL signal", "setting": "[2]", "value": 315, "unit": "ECL signal"}, {"measurement": "ECL signal", "setting": "[3]", "value": 13200, "unit": "ECL signal"}, {"measurement": "ECL signal", "setting": "[4]", "value": 424, "unit": "ECL signal"}]}
{"binder": "B2", "values": [{"measurement": "ECL signal", "setting": "[5]", "value": 957}, {"measurement": "ECL signal", "setting": "[6]", "value": 926}, {"measurement": "ECL signal", "setting": "[7]", "value": 1040}, {"measurement": "ECL signal", "setting": "[8]", "value": 1070}, {"measurement": "ECL signal", "setting": "[9]", "value": 1060}, {"measurement": "ECL signal", "setting": "[10]", "value": 1500}, {"measurement": "ECL signal", "setting": "[11]", "value": 853}, {"measurement": "ECL signal", "setting": "[12]", "value": 857}, {"measurement": "ECL signal", "setting": "[13]", "value": 2380}]}
{"binder": "B3", "values": [{"measurement": "ECL signal", "setting": "[14]", "value": 673}, {"measurement": "ECL signal", "setting": "[15]", "value": 706}, {"measurement": "ECL signal", "setting": "[16]", "value": 2990}, {"measurement": "ECL signal", "setting": "[17]", "value": 645}, {"measurement": "ECL signal", "setting": "[18]", "value": 573}, {"measurement": "ECL signal", "setting": "[19]", "value": 556}]}
